Experiment: soluble on expression in E. coli; label from the status in PepcDB or PDB records
In the case of “MGSDKIHHHHHHMSLKAKLARKFVYAVFPDVRKYTSIKPAFENSPDSPEGRLVPEVVALYGKPGVHILKMALVLPYLVGTAYYARKSVTSVRRNPGKGKKTAPPEFFEELESYAKSLGVLKVGYTKLTPELVFSNRAVLFENAIVLIGEMRKKEIAKAPGVRAGMEVWRTYYRLTRAAYKIAEFLRERGYNAQPDPAVGRSTNFPLLAQKAGLDHIGKHGLLITPENGPSVRIGAVYTDLELPYTDERVREHGWIPHFCDRCNACVRACPAQAIYITPRRENGREVHIDYKRCAVIFSRTLGCSICVKECTFTKGSYEKIKRVHEKIRNR”, the “soluble on expression in E. coli” value is reported as “not soluble”.
In the case of “MGSDKIHHHHHHMSLKTSDVKFKDRIQTQIHDPIMRKAVANAQERIGANRQKMVDELGHWEAWRDHAAQIREHVLNNLDAYLYQLSEKVTANGGQVYFAKTKEDATRYILQVAQANHAKKVVKAKSMVTEEIGMNHVLQQAGIEVIETDLGEYILQLDQDPPSHVVVPAIHKDRYQIRKVLHEKLGYDGPETPEAMTLFIRKKIREDFLSAEVGVTGCNFAVAETGSVCLVTNEGNARMCTTLPKTHIAVMGMERIAPTFEEVDVLITMLARSAVGARLTGYNTWLTGPREAGHVDGPQEFHLVIVDNGRSQILGSAFRDILRCIRCGACINTCPAYRHIGGHGYGSIYPGPIGAVISPLLGGYQDFKELPYACSLCTACDTVCPVHIPLSSLILKHRRVMAESGITPKAEQRFTKLFSYVNSHPMLWKVGMIAGAHAAGWFIKNGKTRIEMGAIGEWTEARDLPDADGESFRSWFKKHQARGKK”, the “soluble on expression in E. coli” value is reported as “not soluble”.
In the case of “MGSDKIHHHHHHMSLNQPPHTRLRHDNPRSPNTFPSRAKVVGAEDLATTSNASTGHGFNLARPVHRNREPATPAPRVVEGANRRRSACEQDISHRHEKIYNWAPAPNTRQGQPTRRLTSRSGPKEREHAARTPRTALQCQRVLALGRVRTCASCGRGSEVLLRGLCPECFDRRYGVVEGLPWELVVDVCTSCGRVRIGHKWLEYATAEEAVGLMLSSMSLKPVHPVERVELEDWALETRLDWRTRVRLRFRANYRDTLFRVSRVIVLRLNPSTCPLCIVRRSGEYDTLVQVRGYRAGEAVEKTLNSLDPREAPIDVVPVRGGVDVYFHHRGAAARFVSRLASTARVRVSRVEHEHVGTSSLGRRRSRKTILVRLEGLTGERGE”, the “soluble on expression in E. coli” value is reported as “not soluble”.
For “MGSDKIHHHHHHMSLPAMDAGIYLEETAPRALIEHNNILDNSVGVYLHGSADAMVRENKIVGDATLRVNERGNGVTVWNAPGAQVVGNDISKGRDGIFSNTSTHNTYKNNRFSDLRFAVHYMYTNDSEISGNISVGNNMGYVLMFSERLKVFDNIAVGSRDQGIMLNYVNYSDIHDNIINKAGKCVFAYNANYDKLSANHFENCQIGIHFTAAIEGTSLHDNSFINNESQVKYVSTRFLDWSEGGHGNYWSDNSAFDLNGDGFGDSAYRPNGIIDQIIWRAPVSRLLMNSPAISIVKWAQAQFPAVLPGGVVDSKPLMKPYAPKIQTRYQAMKDGLLKKVETRQLEWGRAENGSLN”, the “soluble on expression in E. coli” value was “not soluble”.
In the case of “MGSDKIHHHHHHMSLPLRSIHYFVEVARCESFSLAAERLHVSQSAVSHQVALLEGYLGDDLFVRRGRKILLTAVGENYFNEVAGAINAIEGATANVRQYDTRQVKLAVHGSLAVKWLIPALDEFRQRYPNVELTLQMLTQDGNFDTQWADCFITTQPPGMGYQRYHLYDETLKPYCSKALWAEAHRLESAGDLIQYPLLSAISAFASGEPGTDWQRWFKKANLRLPVSARVHHFSHLLLAAEAAKYGQGIALLNEFMTTEQEREESLFELPFHSIQTDDSFYFVYPSSTAKSPGLESLGDWLVALCRTRH”, the “soluble on expression in E. coli” value is reported as “not soluble”.
For “MGSDKIHHHHHHMSLQSGEWREQIDEVDAALIDEFQSDFPIQERPFEAVGDALGVSAGTALDRVKTLRDDGIFRRFGPVLNPPVIGSSTLAAVSAPEDRFDEVAEIINGYRQVNHNYARDHEWNMWFVVTAGSRQRRDEILAEIEERTGCSVLVLPMLTDYYIDLEFPVVNGDRFARESLETTDATATRISEDAAADLSELDRRLLLEIQSGFPLVATPYRDVADAVDADVSEVLSAIKRLQRTGCIKRIGCVVNHIVTGFDNNCMVVWDVPDDALDERGQAVGELPYVTLCYHRPRRPEQDWQYNLFTMIHGREADIVDEKIDELATDHLPYDHGRLYSTETLKQTGARYDDIVGQ”, the “soluble on expression in E. coli” value was “not soluble”.
For “MGSDKIHHHHHHMSLSRIHGDDDAFGARLDFAVNVAEAQPPTWLIQRLQSAVTDLAAYPHSSDLAAVTAMIARYHGVSEDHVLVLSGVSEGFAMLPQLKPENAVIIHPGFSEPDIVLTDAQIPVHRCILAPPFELSFENIPANADLVVIGNPTNPTGVVHSKELLAQLCAPGRTVVIDEAFLDIVGEQYSMIDQLDAVEGELIIFRSLTKTWSIAGLRVGYAIARPETLARLSAYRRHWPMGTLQLRAIEAVFDTGIMQLPERRAEMIAQRTEMIEMLTNSGFRCVSSSQAPYILVRPPSTQPEELRMALKAQGIAVRRCDTFPGLEFSYWRLAVRPRDQVQRLLTAIDNIIGAKK”, the “soluble on expression in E. coli” value was “not soluble”.
With “MGSDKIHHHHHHMSLVRLQDVSVRFDNTQILREAFFRLEPRDRVGLIGKNGSGKTTMLQLILDRITPESGTVTVEPGTRIGYFSQFSELNGASTITDVLDGLFSEIKAVEAELASIDTAIAGDPAGAELDRLIARQAELFEDMDRLDGWDYPRRIDKVLTTLGFSDAHRVCAIDELSGGWRNRAALAKILLEDPDVLLLDEPTNFLDVAGVEWLESWFRDFKGAAIIVSHDRKFLDAVVTRIIEVENFHLHEYPGNFGEYIVQKQFRLKSLEQQFVHESELLAFEAEGIADRREAAKAASRGLGNQLAKIKKSRTPRPVDQIVTEIYGGLHVKDVLCRVEGLGKSYGDKALFTGLGFEIRRGNRIVVLGANGSGKSTLLKVLTGEEEADAGVVSWAKGPGFVSYNRMLEELDDADTVSHAVNALPDSLAFSATRKSVNRFLAMFQFSEADLKQKIGNLSGGQKARVAMAQCLLSGASVLLLDEPTNHLDLSSTQVMERALMHFPGAVVVVSHDRFFSEKIANRYLVFGADAALPGEVEVRAA” the “soluble on expression in E. coli” value was “not soluble”.
For “MGSDKIHHHHHHMSMDKELITAQALAEALHLSVETIWRYTREKKIPCIELGNKQYRYKKDDVIKALSNGSIQESASSYETQEPRKLTYQDYLLLPEEPGYHFEILDGMLIKEPAPNVLHQRVSRRLQRILEDYFWKVDPKGEVFDAPLDVTLHDVNVVQPDLLYVASEQEVIVKDTRIDGPPMLVVEIMSPSTSRKDRLQKRRIYQEARVEHYWLVNPQEKMLECFAWRDGVYALVAGGMEEELVEHPDFPGLSIALRALWNREI”, the “soluble on expression in E. coli” value was “not soluble”.
For “MGSDKIHHHHHHMSNTKKGLATAGYNDDLAKLEEIFLPNFFYKKMQYYFSSSGLISNDVLFVHYTSTESALDIIREKRVLMRNALHMPDRQEVQDGFNIMDGLLSNENNHWVEFRNRIEVVLPGVVDRVMKIYSDHSHGRNDGTYFLSVLEHDESEKELGRLSMWRAFCGQSQPVAMFLRLPALSAVSQVLRIFFNPVLYKGKGQQHLELAEVIKNVENHKSFLERLDPDLVTSAIVSMILINVLCVKHKVFKEEREWRCVYLPKCFTSETSARLIEPGVEEQVGASRNVYKMPLNAAIDPVLSDIDLSKIFDSLIIGPSKSPYATYEVFCDELKKIGVSDVESKVRVTEIPVR”, the “soluble on expression in E. coli” value was “not soluble”.
In the case of “MGSDKIHHHHHHMSPREVAAPHEVKARLYILDTNVLMHDPSALFRFEEHDILLPMIVLEELDQHKKGLSEQARNVRQVSRYLDEMLTDTADLDRGLVLPYAQGRLYFQTAAHQQALPEDLAGGKADHEILAVTLALQNRHPEKDVILVSKDINLRIKGRTLGIRVEDYQNDRALDDVDLLYTGAETLSADFWDLHSRDLDAWQESGRSYYKISGPAIQRWHSNQFIAINVEEGAPEDFAAIVREVRPEHAIIERITDYRSDRHAVWGILARNPEQNFALNLLMDPDIDFVTLLGHAGTGKTLLTLAAALHQIFEQKRYSEVIITRATVPVGDEIGFLPGTEEEKMLPWMGALEDNLEILARGSDEGGSWGRSATQDLINKRIRVKSMSFMRGRTFLEKFVIIDEAQNLTSKEMKTLITRAGPGTKIVCLGNIAQIDTPYLTETTSGLTYVVDRFKDWAYSGHITLRRGERSRLADFANDAL”, the “soluble on expression in E. coli” value is reported as “not soluble”.
In the case of “MGSDKIHHHHHHMSQIISVHSFRGGTGKSNMTANLATTLALQGKRIAIIDTDIQSPGIHVIFGLNEQKMNNCLNDYLWGKCAIEDAAYDVTHLLKGEGGSGKLYLIPSSINPGQITRILREGYDVARLNDGFYEIINALDLDYLLIDTHPGLNEETLLSIAISDILVVILRPDQQDFQGTAVTLEVARKLEVPKMMLVVNKVLSTFDFNALQQEVESTYKTPVAGIVPLSEDIIRLASSNIFCLLYTSHPFSQVVQKITAQIIREQAKVAVRGAF”, the “soluble on expression in E. coli” value is reported as “not soluble”.
For “MGSDKIHHHHHHMSRESALSRASRYFEAGDFQSDLAHLVTYRSESQNTAPEARMECRRYLEEAMLPRLRALGFDCEIIDNPDPTGGPLLIGERREGEALPTILTYGHGDAVLGQEGRWREGLEPWVLVEEGDRLYGRGTADNKGQHLINIAALEAVLAERGHLGFNTRIVIEMSEEVGSVGLPDVFRAYKDRLTADVLIASDGPRLQPDVPTMFMGSRGGTTFDLVVETHEGAHHSGNWGGLLSDPAMILAHALACITDVRGQIKVPEWRPDSLTENVRMALRDLPVAGGQGPAVNPDWGEEDLTPAERVFGWNSFTVLAMVSGVPEAPVNAISGWARATCQLRYVVGTDPEDVVPALRRHLDAHGFESVEIRCHERGFFAATRLDPDHPWAQFVGESIRRTSGALHVLPNLAGSLPNDSFTDILEVPTIWVPHSYRGCSQHAPNEHVLKSVYHDALRVMAGVFWDLGEQGGPLA”, the “soluble on expression in E. coli” value was “not soluble”.
In the case of “MGSDKIHHHHHHMSRNTEATEEVGIWTGGRLNYKEGFFTQLPTDELAKGISEEVVRAISAKRNEPEWMLEFRLNAYRAWLDMDEPHWLKAHYDKLNYQDYSYYSAPSCGNCDDSCVSQPGAVQQTGANTFLSKEVEDAFEQLGVPVREGKEVAVDAIFDSVSVATTYREKLAEQGIIFCSFGEAIHDHPDLVRKYLGTVVPGNDNFFAALNAAVASDGTFIYVPKGVRCPMELSTYFRINAEKTGQFERTILVADEGSYVSYIEGCSAPVRDSYQLHAAVVEVIIHKDAEVKYSTVQNWFPGDNNTGGILNFVTKRALCEGENSKMSWTQSETGSAITWKYPSCILRGDNSIGEFYSVALTSGHQQADTGTKMIHIGKNTRSTIISKGISAGHSQNSYRGLVKIMPTATNARNFTQCDSMLIGADCGAHTFPYVECRNNSAQLEHEATTSRIGEDQLFYCLQRGISEEDAISMIVNGFCKDVFSELPLEFAVEAQKLLAISLEHSVG”, the “soluble on expression in E. coli” value is reported as “not soluble”.
In the case of “MGSDKIHHHHHHMSRTLIIYSTVDGQTKAICDQIAEQCKSDTQPVTMVSLEEAQSVNLSYFDKVIIGASIRYGKHRPELFQYVNRHRAVLNGKKNAFFTVNVVARKPEKNTPETNPYMKKFLQLSLWQPQQLGVFAGKIDYPKYRFFDKFMIRFIMWITKGPTDTSGTYEFTDWDKVQEFAKAFSER”, the “soluble on expression in E. coli” value is reported as “not soluble”.
In the case of “MGSDKIHHHHHHMSSDVRKALDPGTPYSRTLKQYSIDEKLAIISHAKNHGNRAAGREFNVAESSIREWRKNENKLIHNRDAAAARLNAQSSHSSGPARLNNMNNNNNNNHNHSKNNNIQYTQTVFPRRTPDDIVKHIQIAQITQLAMMKMDFTSLARIAPFLQAHQHQQQAQAKPDSISTASSVVGTPSSISSSSSTPPPSTSPVPTSSGSGRRKPRCPMKIVVAESNNPVNIEEIQENIDE”, the “soluble on expression in E. coli” value is reported as “not soluble”.

— the DeepSol protein solubility set
